Laboratory results as given in article PMC5964570.

Each substance was assayed against Angiotensin I converting enzyme (ACE) from rabbit lung (rabbit) (UniProt P12822).
UniProt P12822, sequence (P12822 34-1310): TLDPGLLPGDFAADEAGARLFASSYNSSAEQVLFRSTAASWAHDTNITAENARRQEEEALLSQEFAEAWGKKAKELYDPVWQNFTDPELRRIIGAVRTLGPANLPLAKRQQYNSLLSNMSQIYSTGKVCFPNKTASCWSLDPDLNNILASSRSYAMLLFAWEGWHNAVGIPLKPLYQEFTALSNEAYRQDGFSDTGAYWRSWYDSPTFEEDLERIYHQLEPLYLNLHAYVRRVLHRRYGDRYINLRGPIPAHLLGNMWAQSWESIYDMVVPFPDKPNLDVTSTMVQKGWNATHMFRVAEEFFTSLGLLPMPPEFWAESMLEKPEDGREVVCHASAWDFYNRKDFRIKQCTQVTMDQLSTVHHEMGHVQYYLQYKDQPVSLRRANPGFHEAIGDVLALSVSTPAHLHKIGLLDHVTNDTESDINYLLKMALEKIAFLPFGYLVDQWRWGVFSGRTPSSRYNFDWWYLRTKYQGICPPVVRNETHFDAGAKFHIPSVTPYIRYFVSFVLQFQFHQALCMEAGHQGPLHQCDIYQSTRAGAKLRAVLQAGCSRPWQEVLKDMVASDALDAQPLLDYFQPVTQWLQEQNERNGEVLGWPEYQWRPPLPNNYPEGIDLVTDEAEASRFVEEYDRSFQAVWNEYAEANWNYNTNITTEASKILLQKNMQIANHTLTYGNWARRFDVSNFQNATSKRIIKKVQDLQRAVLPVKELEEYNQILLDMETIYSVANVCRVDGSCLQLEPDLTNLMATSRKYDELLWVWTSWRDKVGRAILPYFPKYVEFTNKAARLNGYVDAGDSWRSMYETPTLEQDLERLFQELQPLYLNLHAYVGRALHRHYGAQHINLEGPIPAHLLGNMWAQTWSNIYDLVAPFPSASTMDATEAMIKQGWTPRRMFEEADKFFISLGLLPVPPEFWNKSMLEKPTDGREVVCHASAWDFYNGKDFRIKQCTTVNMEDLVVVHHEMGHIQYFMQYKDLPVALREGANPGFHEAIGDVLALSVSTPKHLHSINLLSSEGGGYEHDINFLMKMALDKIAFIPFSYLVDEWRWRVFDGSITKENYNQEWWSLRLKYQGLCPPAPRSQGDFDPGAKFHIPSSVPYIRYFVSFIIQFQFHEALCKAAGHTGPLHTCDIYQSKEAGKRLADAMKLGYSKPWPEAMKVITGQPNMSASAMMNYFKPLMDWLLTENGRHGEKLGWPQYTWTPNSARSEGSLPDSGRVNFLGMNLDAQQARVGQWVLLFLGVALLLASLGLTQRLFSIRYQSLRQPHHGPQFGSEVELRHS

In order of rising IC50 of inhibition of ACE activity (hippuric acid released from Hip-His-Leu, RP-HPLC; 50 mM HEPES, 360 mM NaCl, pH 8.3, 37°C):
1. Cys-Cys (peptide)  4.37 μM
2. Cys-Phe (peptide)  13.8 μM
3. Cys-Arg (peptide)  476 μM
